Data published in US20240270846A1 (published 2024).
Numbering of substitutions follows the chain as printed. Names may count otherwise.

B1: CE115HA000 A99F one-arm antibody (antibody, human IgG1, kappa, L234A L235A, N297A, name in Kabat numbering)
heavy: QVQLVESGGGVVQPGRSLRLSCAASGFTFSNAWMHWVRQAPGKGLEWVAQIKAKSNNYATYYAESVKGRFTISRDDSKNSLYLQMNSLKTEDTAVYYCRYVHYGFYYGVDAWGQGTTVTVSSASTKGPSVFPLAPSSKSTSGGTAALGCLVKDYFPEPVTVSWNSGALTSGVHTFPAVLQSSGLYSLSSVVTVPSSSLGTQTYICNVNHKPSNTKVDKKVEPKSCDKTHTCPPCPAPEAAGGPSVFLFPPKPKDTLMISRTPEVTCVVVDVSHEDPEVKFNWYVDGVEVHNAKTKPREEQYASTYRVVSVLTVLHQDWLNGKEYKCKVSNKALPAPIEKTISKAKGQPREPQVYTLPPSRCELTKNQVSLSCAVKGFYPSDIAVEWESNGQPENNYKTTPPVLDSDGSFFLVSKLTVDKSRWQQGNVFSCSVMHEALHNHYTQKSLSLSPDYKDDDDK
chain: EPKSSDKTHTCPPCPAPELLGGPSVFLFPPKPKDTLMISRTPEVTCVVVDVSHEDPEVKFNWYVDGVEVHNAKTKPREEQYNSTYRVVSVLTVLHQDWLNGKEYKCKVSNKALPAPIEKTISKAKGQPREPQVCTLPPSRDELTKNQVSLWCLVKGFYPSDIAVEWESNGQPENNYKTTPPVLDSDGSFFLYSKLTVDKSRWQQGNVFSCSVMHEALHNRYTQKSLSLSP
light: DIVMTQSPLSLPVTPGEPASISCRSSQSLVHSNRNTYLHWYQQKPGQAPRLLIYKVSNRFSGVPDRFSGSGSGTDFTLKISRVEAEDVGVYYCGQGTQVPYTFGQGTKLEIKRTVAAPSVFIFPPSDEQLKSGTASVVCLLNNFYPREAKVQWKVDNALQSGNSQESVTEQDSKDSTYSLSSTLTLSKADYEKHKVYACEVTHQGLSSPVTKSFNRGEC
notes: one-arm antibody (one Fab)
B2: CE115HA000 A99Y one-arm antibody (antibody, human IgG1, kappa, L234A L235A, N297A, name in Kabat numbering)
heavy: B1 heavy with F105Y
chain: B1 chain
light: B1 light
notes: one-arm antibody (one Fab)
B3: CE115HA000 A102P one-arm antibody (antibody, human IgG1, kappa, L234A L235A, N297A, name in Kabat numbering)
heavy: B1 heavy with F105A, A111P
chain: B1 chain
light: B1 light
notes: one-arm antibody (one Fab)
B4: CE115HA000 D101H one-arm antibody (antibody, human IgG1, kappa, L234A L235A, N297A, name in Kabat numbering)
heavy: B1 heavy with F105A, D110H
chain: B1 chain
light: B1 light
notes: one-arm antibody (one Fab)
B5: CE115HA000 D101G one-arm antibody (antibody, human IgG1, kappa, L234A L235A, N297A, name in Kabat numbering)
heavy: B1 heavy with F105A, D110G
chain: B1 chain
light: B1 light
notes: one-arm antibody (one Fab)
B6: CE115HA000 A99K one-arm antibody (antibody, human IgG1, kappa, L234A L235A, N297A, name in Kabat numbering)
heavy: B1 heavy with F105K
chain: B1 chain
light: B1 light
notes: one-arm antibody (one Fab)
B7: CE115HA000 D101M one-arm antibody (antibody, human IgG1, kappa, L234A L235A, N297A, name in Kabat numbering)
heavy: B1 heavy with F105A, D110M
chain: B1 chain
light: B1 light
notes: one-arm antibody (one Fab)
B8: CE115HA000 D101N one-arm antibody (antibody, human IgG1, kappa, L234A L235A, N297A, name in Kabat numbering)
heavy: B1 heavy with F105A, D110N
chain: B1 chain
light: B1 light
notes: one-arm antibody (one Fab)
B9: CE115HA000 D73R one-arm antibody (antibody, human IgG1, kappa, L234A L235A, N297A, name in Kabat numbering)
heavy: B1 heavy with D76R, F105A
chain: B1 chain
light: B1 light
notes: one-arm antibody (one Fab)
B10: CE115HA000 D101L one-arm antibody (antibody, human IgG1, kappa, L234A L235A, N297A, name in Kabat numbering)
heavy: B1 heavy with F105A, D110L
chain: B1 chain
light: B1 light
notes: one-arm antibody (one Fab)
B11: CE115HA000 A102Y one-arm antibody (antibody, human IgG1, kappa, L234A L235A, N297A, name in Kabat numbering)
heavy: B1 heavy with F105A, A111Y
chain: B1 chain
light: B1 light
notes: one-arm antibody (one Fab)
B12: CE115HA000 D73N one-arm antibody (antibody, human IgG1, kappa, L234A L235A, N297A, name in Kabat numbering)
heavy: B1 heavy with D76N, F105A
chain: B1 chain
light: B1 light
notes: one-arm antibody (one Fab)
B13: CE115HA000 A102I one-arm antibody (antibody, human IgG1, kappa, L234A L235A, N297A, name in Kabat numbering)
heavy: B1 heavy with F105A, A111I
chain: B1 chain
light: B1 light
notes: one-arm antibody (one Fab)
B14: CE115HA000 A99Q one-arm antibody (antibody, human IgG1, kappa, L234A L235A, N297A, name in Kabat numbering)
heavy: B1 heavy with F105Q
chain: B1 chain
light: B1 light
notes: one-arm antibody (one Fab)
B15: CE115HA000 A99S one-arm antibody (antibody, human IgG1, kappa, L234A L235A, N297A, name in Kabat numbering)
heavy: B1 heavy with F105S
chain: B1 chain
light: B1 light
notes: one-arm antibody (one Fab)
B16: CE115HA000 D72V one-arm antibody (antibody, human IgG1, kappa, L234A L235A, N297A, name in Kabat numbering)
heavy: B1 heavy with D75V, F105A
chain: B1 chain
light: B1 light
notes: one-arm antibody (one Fab)
B17: CE115HA000 A102V one-arm antibody (antibody, human IgG1, kappa, L234A L235A, N297A, name in Kabat numbering)
heavy: B1 heavy with F105A, A111V
chain: B1 chain
light: B1 light
notes: one-arm antibody (one Fab)
B18: CE115HA000 D101I one-arm antibody (antibody, human IgG1, kappa, L234A L235A, N297A, name in Kabat numbering)
heavy: B1 heavy with F105A, D110I
chain: B1 chain
light: B1 light
notes: one-arm antibody (one Fab)
B19: CE115HA000 A99T one-arm antibody (antibody, human IgG1, kappa, L234A L235A, N297A, name in Kabat numbering)
heavy: B1 heavy with F105T
chain: B1 chain
light: B1 light
notes: one-arm antibody (one Fab)
B20: CE115HA000 D73T one-arm antibody (antibody, human IgG1, kappa, L234A L235A, N297A, name in Kabat numbering)
heavy: B1 heavy with D76T, F105A
chain: B1 chain
light: B1 light
notes: one-arm antibody (one Fab)
B21: CE115HA000 D101K one-arm antibody (antibody, human IgG1, kappa, L234A L235A, N297A, name in Kabat numbering)
heavy: B1 heavy with F105A, D110K
chain: B1 chain
light: B1 light
notes: one-arm antibody (one Fab)
B22: CE115HA000 A99L one-arm antibody (antibody, human IgG1, kappa, L234A L235A, N297A, name in Kabat numbering)
heavy: B1 heavy with F105L
chain: B1 chain
light: B1 light
notes: one-arm antibody (one Fab)
B23: CE115HA000 D101F one-arm antibody (antibody, human IgG1, kappa, L234A L235A, N297A, name in Kabat numbering)
heavy: B1 heavy with F105A, D110F
chain: B1 chain
light: B1 light
notes: one-arm antibody (one Fab)

Target: T1, CD3 epsilon homodimer protein (UniProt P07766 23-126)
T1 construct: Immobilized on Sensor chip CM4 by amine coupling; construct not described; also called CD3 (CD3 epsilon)
Assay: SPR Biacore T200, CD3 epsilon homodimer on CM4 chip, antibody as analyte;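 also: Amine-coupled CD3 epsilon homodimer, run at 25 °C in HBS-EP+ buffer, ratio is bound amount of each single-residue H chain variant over that of the parent antibody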

T1 sequence (P07766 23-126): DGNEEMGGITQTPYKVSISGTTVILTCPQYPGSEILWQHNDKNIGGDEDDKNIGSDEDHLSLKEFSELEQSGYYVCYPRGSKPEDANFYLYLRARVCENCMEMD

Row | Binder | ratio of amounts bound (Y/X vs CE115HA000)
1 | B1 | 1.43
2 | B2 | 1.59
3 | B3 | 0.14
4 | B4 | 1.21
5 | B5 | 1.38
6 | B6 | 1.48
7 | B7 | 1.2
8 | B8 | 2.02
9 | B9 | 1.04
10 | B10 | 0.62
11 | B11 | 0.91
12 | B12 | 0.94
13 | B13 | 1.48
14 | B14 | 0.91
15 | B15 | 0.82
16 | B16 | 1.43
17 | B17 | 1.43
18 | B18 | 1.18
19 | B19 | 0.84
20 | B20 | 0.63
21 | B21 | 0.63
22 | B22 | 1.13
23 | B23 | 0.75
